Measured values as given in patent US20210293825.

Biological target: HSP90β/CDC37 heterocomplex of purified recombinant HSP90β and CDC37 (in vitro kinase assay), P08238
Sequence (P08238 whole entry, chain 1 of 2): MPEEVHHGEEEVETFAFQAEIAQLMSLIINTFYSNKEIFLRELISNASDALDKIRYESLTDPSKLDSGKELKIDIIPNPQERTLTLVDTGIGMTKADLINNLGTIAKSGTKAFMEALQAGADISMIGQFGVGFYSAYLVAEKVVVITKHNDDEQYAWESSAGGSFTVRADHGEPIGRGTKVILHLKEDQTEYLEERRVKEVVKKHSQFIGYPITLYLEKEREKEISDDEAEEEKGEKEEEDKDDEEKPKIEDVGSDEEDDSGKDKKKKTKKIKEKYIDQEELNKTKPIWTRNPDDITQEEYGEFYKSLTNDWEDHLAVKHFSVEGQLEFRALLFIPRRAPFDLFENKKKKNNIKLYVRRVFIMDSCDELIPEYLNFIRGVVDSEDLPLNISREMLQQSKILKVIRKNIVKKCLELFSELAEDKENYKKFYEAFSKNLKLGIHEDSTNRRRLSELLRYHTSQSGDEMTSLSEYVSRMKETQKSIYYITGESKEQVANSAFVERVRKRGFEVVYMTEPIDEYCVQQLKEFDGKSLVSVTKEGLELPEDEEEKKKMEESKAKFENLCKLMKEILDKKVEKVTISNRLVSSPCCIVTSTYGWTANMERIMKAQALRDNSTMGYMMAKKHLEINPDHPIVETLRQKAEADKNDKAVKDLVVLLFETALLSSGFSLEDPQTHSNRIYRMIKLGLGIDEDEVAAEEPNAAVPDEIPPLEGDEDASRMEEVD
Sequence (chain, as listed by the source, chain 2 of 2): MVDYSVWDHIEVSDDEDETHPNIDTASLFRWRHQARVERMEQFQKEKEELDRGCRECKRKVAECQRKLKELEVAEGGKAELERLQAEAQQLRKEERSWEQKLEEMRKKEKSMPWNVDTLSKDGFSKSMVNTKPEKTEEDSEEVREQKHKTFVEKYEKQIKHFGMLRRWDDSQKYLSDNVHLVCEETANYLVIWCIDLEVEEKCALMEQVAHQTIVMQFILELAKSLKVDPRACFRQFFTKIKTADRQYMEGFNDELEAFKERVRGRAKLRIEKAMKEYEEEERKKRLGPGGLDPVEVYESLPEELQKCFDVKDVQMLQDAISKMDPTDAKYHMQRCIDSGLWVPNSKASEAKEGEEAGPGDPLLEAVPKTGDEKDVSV

B1: purified recombinant RAF1 (Raf-1, EMD Millipore #17-360) (protein)
chain: SQPKTPVPAQRERAPVSGTQEKNKIRPRGQRDSSYYWEIEASEVMLSTRIGSGSFGTVYKGKWHGDVAVKILKVVDPTPEQFQAFRNEVAVLRKTRHVNILLFMGYMTKDNLAIVTQWCEGSSLYKHLHVQETKFQMFQLIDIARQTAQGMDYLHAKNIIHRDMKSNNIFLHEGLTVKIGDFGLATVKSRWSGSQQVEQPTGSVLWMAPEVIRMQDNNPFSFQSDVYSYGIVLYELMTGELPYSHINNRDQIIFMVGRGYASPDLSKLYKNCPKAMKRLVADCVKKVKEERPLFPQILSSIELLQHSLPKINRSASEPSLHRAAHTEDINACTLTTSPRLPVF
With B1 the “RAF1 activity (autophosphorylation of RAF1 in an in vitro kinase assay, Western blot)” value was “In the absence of CDC37/HSP90β heterocomplex, RAF1 activity was much lower”.

B2: purified recombinant SGK3 (Thermo Scientific #PV3859) (protein)
chain: MQRDHTMDYKESCPSVSIPSSDEHREKKKRFTVYKVLVSVGRSEWFVFRRYAEFDKLYNTLKKQFPAMALKIPAKRIFGDNFDPDFIKQRRAGLNEFIQNLVRYPELYNHPDVRAFLQMDSPKHQSDPSEDEDERSSQKLHSTSQNINLGPSGNPHAKPTDFDFLKVIGKGSFGKVLLAKRKLDGKFYAVKVLQKKIVLNRKEQKHIMAERNVLLKNVKHPFLVGLHYSFQTTEKLYFVLDFVNGGELFFHLQRERSFPEHRARFYAAEIASALGYLHSIKIVYRDLKPENILLDSVGHVVLTDFGLCKEGIAISDTTTTFCGTPEYLAPEVIRKQPYDNTVDWWCLGAVLYEMLYGLPPFYCRDVAEMYDNILHKPLSLRPGVSLTAWSILEELLEKDRQNRLGAKEDFLEIQNHPFFESLSWADLVQKKIPPPFNPNVAGPDDIRNFDTAFTEETVPYSVCVSSDYSIVNASVLEADDAFVGFSYAPPSEDLFL
For B2, the “phosphorylation of HSP90β (in vitro kinase assay, Western blot)” value was “SGK3 increased phosphorylation of HSP90β, and that phosphorylation was further increased in the presence of KBU2046”.
